“Also recorded” adds a separate entry of the source.

The subject of experiment [1] is HER2 and HER3 receptors. Put plainly: ERK-Luc / JNK-Luc / 6×JNK-Luc reporters in HEK293 cells with HER3 and HER2, treated with NRG1. Format: cell-based, human. The settings on record: HER3 plus wild-type or kinase-dead HER2; HEK293. How it is done: (§1) In order to characterize the specificity of activation of ERK-Luc and JNK-Luc reporters upon treatment of HER3 ligand, ERK-Luc or JNK-Luc was co-transfected with expression plasmids of HER3 and wild-type or kinase-dead HER2 receptors into the HEK293 cells. After 24 hours, the transfected cells were treated with NRG1 (HER3 receptor ligand). The luciferase reporter activity of the transfected cells was measured by Nano-Glo® Luciferase Assay (Promega). In FIG. 13A, no difference in ERK-Luc reporter activity was found between the cells transfected with wild-type HER2 and kinase-dead HER2 after the treatment of NRG1. […] However, the activity of JNK-Luc reporter was reduced in the cells transfected with kinase-dead HER2 compared to the cells transfected with wild-type HER2 (FIG. 13B).
(§2) In order to examine the dose response of NRG1 in the activation of JNK-Luc reporters, JNK-Luc with expression plasmids of HER3 and wild-type HER2 receptors were co-transfected into the HEK293 cells. After 24 hours, the transfected cells were treated with a serial dilution of NRG1 (HER3 receptor ligand) for 6 hours. The luciferase reporter activity of the transfected cells was measured by Nano-Glo® Luciferase Assay (Promega).
(§3) In the previous example, the JNK-Luc reporter contained 3 copies of AP-1 binding site. We observed around 2.6 fold induction of reporter activity when the transfected cells were treated with 100 ng/ml of NRG1 (FIG. 14). In order to enhance the activation of reporter activity, the AP-1 binding site was increased from 3 copies to 6 copies. 6×JNK-Luc was co-transfected with expression plasmids of HER3 and wild-type HER2 receptors into the HEK293 cells. After 24 hours, the transfected cells were treated with 100 ng/ml of NRG1 (HER3 receptor ligand) for 6 hours. The luciferase reporter activity of the transfected cells was measured by Nano-Glo® Luciferase Assay (Promega). In FIG. 15, the 6×JNK-Luc reporter was activated by the treatment of NRG1 only when both HER2 and HER3 receptors were expressed (FIG. 15). Approximately a 4.2 fold induction of reporter activity was found.
(§4) For cell transfection experiments, HEK293 cells (ATCC) were plated at density of 4-8×10^4 cells per well (96-well plates) or 1-2×10^4 cells per well (384-well plates) in phenol red-free MEM containing 10% FBS and antibiotics. Either DNA plasmid or linear DNA was mixed with TransIT-293 transfection reagent (Mirus Bio LLC). Once cells were trypsinized, DNA transfection mix was added. The cells were then incubated for 24 or 48 hours.

Experiment [2] addresses T1, HER2 and HER3 receptors (Homo sapiens, UniProt P04626+P21860).
T1 construct: expressed in transfected cells; host or cells: HEK293
The description is as above. Type of experiment: cell-based. How it is done: as §1, §2, §3, §4

In a further experiment the target is T2, L755S HER2 receptor (Homo sapiens, UniProt P04626, L755S).
T2 construct: expressed in transfected cells; host or cells: HER2 reporter cells (clone #1)
Put plainly: HER2 reporter cells transfected with linear expression cassette of L755S HER2, all-in-one method. Format: cell-based. From the text: L755S corresponds to a missense mutation of HER2, which changes leucine (L) into serine (S) at amino acid position of 755. In order to functionally characterize this mutation, PCR-mediated overlapping extension was employed to construct linear expression cassette of HER2 carrying this mutation. The linear expression cassette of mutant HER2 DNA was first transfected into the reporter cells followed by treatment with NRG1 and its inhibitors using the “all-in-one” method. The luciferase reporter activity was measured 24 hours post-transfection.

Experiment [3] concerns HER1, HER2 and HER3 receptors. Put plainly: ERK-Luc, JNK-Luc and NFkB-Luc reporters in HEK293 cells co-transfected with HER1, HER2 and HER3, treated with ligand. Particulars: ligand 6 hours; HER1, HER2, HER3 co-transfected HEK293. Format: cell-based, human. On the procedure: In order to identify reporters to measure the activity of HER2 receptor, expression plasmids of HER1, HER2 and HER3 were co-transfected with different reporter constructs, including ERK-Luc, JNK-Luc and NFkB-Luc, into the HEK293 cells. After 24 hours, the transfected cells were treated with either EGF (HER1 receptor ligand) or NRG1 (HER3 receptor ligand) for 6 hours. The luciferase reporter activity of the transfected cells was measured by Nano-Glo® Luciferase Assay (Promega). […] JNK-Luc reporter was activated when the transfected cells were treated with either HER1 or HER3 ligand (FIG. 11B).
as §4

In the next experiment the target is T3, wild-type HER2 receptor (Homo sapiens, UniProt P04626).
T3 construct: expressed in transfected cells
Put plainly: HER2 reporter cells (clone #1) transfected with wild-type HER2, 384-well plate. Format: cell-based. On the procedure:
Clone #1 is alternately referred to as the “HER2 reporter cells”. These cells were transiently transfected with the wild-type, constitutively active or kinase-dead forms of HER2 receptors in the 384-well format. After 24 hours, the transfected cells were treated with NRG1. The luciferase reporter activity of the transfected cells was measured by Nano-Glo® Luciferase Assay (Promega). […] The reporter activity of the transfected cells expressing the wild-type form of HER2 receptor was activated upon treatment with NRG1 (FIG. 25). When the cells were transfected with the constitutively active form of HER2 receptor, the reporter activity was activated in the absence of NRG1. However, no activation of reporter was detected when the cells were transfected with the kinase-dead form of HER2 receptor.
The HER2 reporter cells were first transfected with 100 ng of linear expression cassette of HER2. NRG1 was added to the cells 24 hours post-transfection. […] A robust reporter signal was detected even at 2.5 ng/ml of NRG1.
To further reduce the assay turnaround time, different stimulation methods were explored. The first method evaluated was Example 9d which was performed by addition of NRG1 to the cells 24 hours post-transfection for 4, 6 and 24 hours. […] The reporter activity was measured 24 hours post-transfection (FIG. 27A). […]

Consider “NRG1: neuregulin-1, HER3 receptor ligand”, for which the ERK-Luc reporter activation entry in the experiment on HER2 and HER3 receptors [1] is given as “effectively activated”. Also, the “induction of 6×JNK-Luc reporter activity” value with HER2 and HER3 receptors [2] (100 ng/ml of NRG1, 6 hours, HEK293 with HER2 and HER3) was roughly 4.2 fold. In addition, the “induction of JNK-Luc reporter activity (3 copies of AP-1 binding site)” value in the experiment with HER2 and HER3 receptors [2] (100 ng/ml of NRG1, HEK293 with HER2 and HER3) is “around 2.6 fold”. Also, in the experiment with HER2 and HER3 receptors [2] (HER3 plus HER2, HEK293, serial dilution 6 hours), the JNK-Luc reporter activation entry is on record as “activated JNK-Luc reporter in a HER2's kinase dependent manner; also recorded: dose dependent activation”. Besides, the “response of mutant HER2 reporter activity to ligand” value with L755S HER2 receptor is “responds to treatment”. Besides, in experiment [3], the ERK-Luc reporter activation entry is “activated”, the JNK-Luc reporter activation result is listed as “activated” and the NFkB-Luc reporter activation result is “no activation”. Moreover, the “reporter activation by ligand” value with wild-type HER2 receptor was “activated; also recorded: dose-dependent response; also recorded: good dose response; also recorded: dose dependent manner”.

The values above are taken from patent US11319601B2, “Cell based assay” (Medical Diagnostic Laboratories, L.L.C., priority 2017, dated 2022).
